We go through two molecules from paper PMC7230020 (ACS chemical biology, 2020).

Usually koff stands for the first-order rate constant of dissociation. A higher koff goes with a short-lived complex. The term Kd denotes the free concentration of one partner at which half of the binding sites on the other are occupied at equilibrium, for simple one-to-one binding. As usually defined, the kon is the second-order rate constant of association. Higher therefore signals faster complex formation.

Test in all cases: fluorescence polarisation
(In fluorescence polarisation assays a small probe gives low polarisation when free and higher when bound to something large.)

The target in assay [1] is T1, activated RecA (RecA*), E. coli RecA polymerised on ssDNA with ATPγS (E. coli, UniProt P0A7G6 1-353).
T1 sequence (looked up): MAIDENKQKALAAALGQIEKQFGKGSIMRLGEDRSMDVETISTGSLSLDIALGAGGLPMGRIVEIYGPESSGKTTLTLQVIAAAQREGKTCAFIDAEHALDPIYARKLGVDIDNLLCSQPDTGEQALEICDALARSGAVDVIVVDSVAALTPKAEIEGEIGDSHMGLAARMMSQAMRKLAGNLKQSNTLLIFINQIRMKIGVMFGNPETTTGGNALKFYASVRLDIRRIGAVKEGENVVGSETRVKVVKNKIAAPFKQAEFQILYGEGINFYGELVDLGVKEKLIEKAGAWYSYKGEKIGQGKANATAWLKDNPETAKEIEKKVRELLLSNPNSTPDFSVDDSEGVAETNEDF

In assay [2] the target is T1, activated RecA (RecA*), E. coli RecA …. This is another data set of the same source.
Assay [3] has the same target. The source holds these as a separate data set.

Where two headings read alike, the source gives them in different places. Numbered stars: 1 amine (or outer) side, 2 acyl side, 3 side chain; on linkers, the order of the positions; unused ones are H or OH. Square brackets hold non-standard residues; d marks the D form. Acd = acridonylalanine, O=C([C@H](Cc1ccc2[nH]c3ccccc3c(=O)c2c1)N[*:1])[*:2]

B1: LexA-S119A, unlabeled catalytically inactive full-length LexA(1–202) (natural protein, E. coli, UniProt P0A7C2 1-202, looked up)
chain: MKALTARQQEVFDLIRDHISQTGMPPTRAEIAQRLGFRSPNAAEEHLKALARKGVIEIVSGASRGIRLLQEEEEGLPLVGRVAAGEPLLAQQHIEGHYQVDPSLFKPNADFLLRVSGMAMKDIGIMDGDLLAVHKTQDVRNGQVVVARIDDEVTVKRLKKQGNKVELLPENSEFKPIVVDLRQQSFTIEGLAVGVIRNGDWL
For the molecule B1, the binding result in assay [1] was “binds”.

B2: LexA-S119A-Q161δ, full-length E. coli LexA with acridonylalanine (Acd) at position 161 (natural protein)
chain: MKALTARQQEVFDLIRDHISQTGMPPTRAEIAQRLGFRSPNAAEEHLKALARKGVIEIVSGASRGIRLLQEEEEGLPLVGRVAAGEPLLAQQHIEGHYQVDPSLFKPNADFLLRVSGMAMKDIGIMDGDLLAVHKTQDVRNGQVVVARIDDEVTVKRLKK[Acd]GNKVELLPENSEFKPIVVDLRQQSFTIEGLAVGVIRNGDWL
With B2, the off-rate constant (koff) in assay [2] was determined as 0.093 s⁻¹. In assay [3], this molecule yielded a Kd of 790 nM, a koff of 0.048 s⁻¹ and a kon of 61000 M⁻¹ s⁻¹.
